Data taken from patent publication US20180057581A1 (MorphoSys, published 2018).

Assays:
Cytochrome c (cow) = Cytochrome c (cow) (cow, UniProt P62894 2-105); experiment: MSD specificity profiling, coated protein, Camille at 100 nM
Method: (§1) For this specificity profiling test the different proteins and controls were coated on two 384-well MSD plates with a concentration of 1 μg/ml at 4° C. over night. Plates were blocked with BSA and washed three times with PBS with 0.05% (v/v) Tween 20. Antibody samples were diluted to 100 nM and 10 nM in assay buffer (PBS with 0.5% (w/v) BSA, 0.05% (v/v) Tween 20). […] Samples and controls were incubated for three hours at room temperature. The plates were washed three times and 30 μl detection antibody (ECL-labeled anti-human Fab) were added per well and incubated for 1 h. After washing, MSD Read Buffer T with surfactant was added and electrochemiluminescence signals were detected using a Sector Imager 6000 (Meso Scale Discovery, Gaithersburg, Md., USA).

[1] = biological target: Anti-human Fab (Dianova, # 109-005-097); experiment: as above
Method: as §1

Transferrin (bovine) = Transferrin (bovine) (bovine, UniProt Q29443 20-704); experiment: as above
Chain of Transferrin (bovine) (Q29443 20-704 limits assumed): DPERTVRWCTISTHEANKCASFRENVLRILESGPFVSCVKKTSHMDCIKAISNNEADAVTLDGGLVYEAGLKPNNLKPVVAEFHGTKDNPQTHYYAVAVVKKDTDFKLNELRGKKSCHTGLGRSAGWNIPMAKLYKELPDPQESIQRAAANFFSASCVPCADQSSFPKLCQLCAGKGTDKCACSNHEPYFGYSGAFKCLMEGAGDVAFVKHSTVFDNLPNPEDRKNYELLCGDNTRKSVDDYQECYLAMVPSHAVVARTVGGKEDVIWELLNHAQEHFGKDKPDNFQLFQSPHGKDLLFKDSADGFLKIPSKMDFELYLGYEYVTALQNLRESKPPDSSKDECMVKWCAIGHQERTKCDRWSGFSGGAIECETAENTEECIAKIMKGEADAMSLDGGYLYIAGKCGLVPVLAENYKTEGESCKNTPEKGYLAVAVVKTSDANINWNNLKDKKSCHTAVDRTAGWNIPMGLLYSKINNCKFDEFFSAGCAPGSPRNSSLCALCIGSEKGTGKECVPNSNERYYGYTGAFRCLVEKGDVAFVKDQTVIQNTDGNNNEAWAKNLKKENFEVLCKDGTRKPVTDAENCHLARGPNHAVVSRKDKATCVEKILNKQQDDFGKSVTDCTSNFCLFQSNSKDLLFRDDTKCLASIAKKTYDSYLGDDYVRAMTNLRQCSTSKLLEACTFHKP
Method: as §1

Antitrypsin (human) = Antitrypsin (human) (human, UniProt P01009 25-418); experiment: as above
Chain of Antitrypsin (human) (P01009 25-418 limits assumed): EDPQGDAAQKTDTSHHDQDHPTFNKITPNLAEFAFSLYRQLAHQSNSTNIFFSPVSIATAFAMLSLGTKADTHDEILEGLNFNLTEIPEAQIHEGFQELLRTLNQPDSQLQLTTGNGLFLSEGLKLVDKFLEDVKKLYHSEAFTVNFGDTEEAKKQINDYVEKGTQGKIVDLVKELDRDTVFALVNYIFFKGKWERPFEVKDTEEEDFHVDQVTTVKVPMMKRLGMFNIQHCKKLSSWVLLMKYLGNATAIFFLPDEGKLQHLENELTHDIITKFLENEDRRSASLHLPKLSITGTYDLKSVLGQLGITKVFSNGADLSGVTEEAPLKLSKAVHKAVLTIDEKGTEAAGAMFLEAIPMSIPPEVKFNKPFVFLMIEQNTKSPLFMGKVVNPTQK
Method: as §1

Lectin (Lens culinaris) = biological target: T1, Lectin (Lens culinaris) (Lens culinaris, UniProt P02870 31-210; P02870 218-269, limits assumed); experiment: as above
T1 sequence (looked up) 1: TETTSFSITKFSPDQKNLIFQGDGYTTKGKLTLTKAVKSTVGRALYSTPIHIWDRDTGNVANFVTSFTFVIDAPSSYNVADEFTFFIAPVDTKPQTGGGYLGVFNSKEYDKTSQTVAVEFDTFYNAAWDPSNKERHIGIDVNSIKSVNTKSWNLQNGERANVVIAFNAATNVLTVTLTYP
T1 sequence (looked up) 2: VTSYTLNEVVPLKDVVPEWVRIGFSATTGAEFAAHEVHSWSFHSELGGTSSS
Method: as §1

RNase B (cow) = biological target: T2, RNase B (cow) (cow, UniProt P61823 27-150); experiment: as above
T2 sequence (looked up): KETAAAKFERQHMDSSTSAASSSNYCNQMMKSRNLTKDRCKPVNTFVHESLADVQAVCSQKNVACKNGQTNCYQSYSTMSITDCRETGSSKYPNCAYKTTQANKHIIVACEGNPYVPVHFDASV
Method: as §1

Cytokine 1 (human) = Cytokine 1 (human) (human); experiment: as above
Method: as §1

Pepsinogen (pork) = Pepsinogen (pork) (pork, UniProt P00791 16-385); experiment: as above
Chain of Pepsinogen (pork) (P00791 16-385): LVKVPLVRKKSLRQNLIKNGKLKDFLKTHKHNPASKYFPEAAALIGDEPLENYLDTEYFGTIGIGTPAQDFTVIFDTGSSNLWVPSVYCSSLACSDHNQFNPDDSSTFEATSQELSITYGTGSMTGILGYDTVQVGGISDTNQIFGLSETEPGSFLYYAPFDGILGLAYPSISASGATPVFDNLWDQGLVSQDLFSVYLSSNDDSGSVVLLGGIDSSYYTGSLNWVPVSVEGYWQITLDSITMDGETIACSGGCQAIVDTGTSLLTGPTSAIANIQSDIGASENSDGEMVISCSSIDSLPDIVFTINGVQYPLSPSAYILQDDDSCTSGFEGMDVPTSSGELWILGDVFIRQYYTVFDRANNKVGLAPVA
Method: as §1

[2] = biological target: T3, Recombinant human sgM-CSF (human, UniProt P09603 33-255); experiment: Receptor binding assay, inhibition of human M-CSF binding to M-CSF receptor (competitor CSF1-R-Fc); Table 12 summary
T3 construct: also called human secreted glycosylated M-CSF; Human M-CSF
T3 sequence: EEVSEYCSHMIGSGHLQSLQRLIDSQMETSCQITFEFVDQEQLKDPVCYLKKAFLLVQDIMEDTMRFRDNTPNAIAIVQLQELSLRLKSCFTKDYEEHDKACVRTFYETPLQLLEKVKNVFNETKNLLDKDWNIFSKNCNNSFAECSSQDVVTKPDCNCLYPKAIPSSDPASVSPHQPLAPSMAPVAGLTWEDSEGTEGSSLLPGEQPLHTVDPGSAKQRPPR

Chain of Cytochrome c (cow) (P62894 2-105 limits assumed): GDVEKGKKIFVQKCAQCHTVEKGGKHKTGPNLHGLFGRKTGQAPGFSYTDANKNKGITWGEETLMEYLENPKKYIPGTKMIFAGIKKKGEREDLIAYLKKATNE

B1: Camille (format not stated) (antibody, V domains shown)
VH: QVQLQQSGPGLVKPSQTLSLTCAISGESVSTSSAAWNWIRQSPSRGLEWLGRTYYRSKWKHEYAVSVKSRITINPDTSKNQFSLQLNSVTPEDTAVYYCARDRYYYSAFDYWGQGTLVTVSS
VL: QSALTQPASVSGSPGQSITISCTGTSSDVGGYNSVSWYQQHPGKAPKLLIYAVSNRPSGVSNRFSGSKSGNTASLTISGLQAEDEADYYCASYDERFTRVFGGGTKLTVLG
notes: also called Antibody Camille
With B1 the “signal normalized to reference antibody MOR03207” value (“signal normalized” for short) (Cytochrome c (cow)) was 1 ratio, the “signal normalized” value [1] was 1 ratio and the “signal normalized” value (Transferrin (bovine)) was 1 ratio. For the same binder, the “signal normalized” value (Antitrypsin (human)) was 1 ratio, the “signal normalized” value (Lectin (Lens culinaris)) was 1 ratio and the “signal normalized” value (RNase B (cow)) was 1 ratio. The “signal normalized” value (Cytokine 1 (human)) was 1 ratio, the “signal normalized” value (Pepsinogen (pork)) was 1 ratio and the IC50 [2] was 4 pM.
